{"source": "paper PMC3386954", "origin": "cited, not measured here", "molecular_target": "Capillary morphogenesis gene 2 protein (Homo sapiens) (UniProt P58335)", "sequence (P58335 34-318)": "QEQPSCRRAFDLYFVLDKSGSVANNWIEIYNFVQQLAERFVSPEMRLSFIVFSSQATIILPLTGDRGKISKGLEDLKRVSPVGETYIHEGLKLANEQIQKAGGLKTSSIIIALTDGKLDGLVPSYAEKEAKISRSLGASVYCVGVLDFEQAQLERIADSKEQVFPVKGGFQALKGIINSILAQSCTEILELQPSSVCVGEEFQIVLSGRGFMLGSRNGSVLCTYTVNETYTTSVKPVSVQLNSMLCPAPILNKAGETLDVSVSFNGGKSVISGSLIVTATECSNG"}
{"substance": "Protective antigen (from UniProt P13423)", "values": [{"measurement": "Kd", "result": "> 0.17", "unit": "nM"}]}
